Source: patent US20240018254A1

Target: FcγRIIIa-bio (UniProt P08637)
Experiment: BLI (Fortebio), FcγRIIIa-bio on SA sensor, antibody 31.3-500 nM, 1:1 fit

Chain of UniProt P08637 (P08637 17-208 limits assumed): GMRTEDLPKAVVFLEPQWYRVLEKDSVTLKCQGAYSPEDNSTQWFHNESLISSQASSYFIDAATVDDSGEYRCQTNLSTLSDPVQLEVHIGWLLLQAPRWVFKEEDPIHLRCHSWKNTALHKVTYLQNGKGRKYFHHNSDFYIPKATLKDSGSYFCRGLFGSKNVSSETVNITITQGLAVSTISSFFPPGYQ

MEDI9447 (Oleclumab) (antibody) gave a Kd of 141 nM, a koff of 0.0342 s⁻¹ and a kon of 243000 M⁻¹ s⁻¹.
